Among the data in patent US20180264110A1 are % Gate and MR values, retold here.

In assay [1] the target is BTLA overexpressed on 293T cells (human) (UniProt Q7Z6A9). The assay can be described thus: FACS, 293T cells overexpressing BTLA. On the technique in general: Flow cytometry measures light scatter and fluorescence of single cells or particles in a stream.
Assay [2] shares this target. As to the kind of experiment: FACS, 293T cells overexpressing BTLA; secondary antibody alone (background control).

Sequence of BTLA overexpressed on 293T cells (human) (Q7Z6A9 31-289 limits assumed): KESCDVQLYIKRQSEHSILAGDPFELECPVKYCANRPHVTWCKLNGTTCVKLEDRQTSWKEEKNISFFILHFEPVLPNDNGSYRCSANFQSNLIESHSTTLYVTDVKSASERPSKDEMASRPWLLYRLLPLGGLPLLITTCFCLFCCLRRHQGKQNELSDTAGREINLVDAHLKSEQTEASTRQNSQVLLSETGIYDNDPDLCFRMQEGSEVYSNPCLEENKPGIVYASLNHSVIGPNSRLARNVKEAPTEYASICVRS

In assay [1], Isotype (antibody) showed a % Gate of 5.08% and an MR of 11.7.

As for BTLA (MIH26) (antibody), in assay [1], the % Gate came to 91.3% and the MR came out at 2850.

In assay [2], 2′Ab only (antibody) yielded a % Gate of 10.1% and an MR of 16.6.
